The nanobody polyreactivity screen of Harvey et al. (2022)

Assay: yeast display, Sf9 membrane polyspecificity reagent, FACS + sequencing; frameworks hold sequencing errors
In short: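 Using colony PCR, genes from sorted yeast display clones were amplified, then sequenced on MiSeq at 2 × 250 and filtered by CDR length. The clones had been stained with 10% biotinylated, detergent-solubilized Sf9 membrane reagent for 1 hour at 4 °C and sorted by FACS into low and high (top ~1%) gates on anti-HA and streptavidin fluorescence. Polyreactivity labels come from the gate of origin.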

| Sequence | polyreactivity (PSR sort gate) |
| --- | --- |
| QVQLVDSGGGLVQAGGSLRLSCAASGSIFVPYAMGWYRQAPRKERELVAAISWSGGSTNYADSVKGRFTISRDNAKNTVYLQMNSLKPEDTAVYYCNARWSSWYIHSHYYYWGQGTQVTVSS | high polyreactivity |
| QVQLVDSGGGLVQAGGSLRLSCAASGSILGQNAMGGNRQAPGKERELVAAITRGGSSTYYADSVKGRFTISRDNAKNTVYLQMNSLKPEDTAVYYCAAYSSIGYRQISGYYWGEGTQVTVSS | low polyreactivity |
| QVQLVDSGGGLVQAGGSLRLSCAASGSIYNIYAMGWYRQAPGKERELVATITGIADSTYYADSVKGRFTISRDNAKNTVYLQMNSLKPEDTAVYYCAADKYVAEYDYWGQGTQVTVSS | low polyreactivity |
| QVQLVDSGGGLVQAGGSLRLSCAASGSTFDRNGMGWYRQAPGKERELVAAITRGGSTYYADSVKGRFTISRDNAKNTVYLQMNSLKPEDTAVYYCAKRYRGGYYYPYNYWGQGTQVTVSS | high polyreactivity |
| QVQLVDSGGGLVQAGGSLRLSCAASGSTFKINAMGWYRQAPGKERELVAAISSRGGPTYYADSVKGRFTISRDNAKNTVYLQMNRLKPEDTAVYYSAKRRGGSRPYYYWGQGTQVTVSS | high polyreactivity |
| QVQLVDSGGGLVQAGGSLRLSCAASGSTFKIYAMGWYRQAPGKERELVARITSGGSTNYADSVKGRFTISRDNAKNTVYLQMNSLKPEDTAVYYCAARRWSYSTRGQRSSNLDYWGHGTQVTVSS | high polyreactivity |
| QVQLVDSGGGLVQAGGSLRLSCAASGSTFLFNAMGWYRQAPGNVREVVAGISSSGGSTHYADSVKGRFTISRDNAKNTVYLQMNSLKPEDTAVYYCNAQQYLPSEGDYWGQGTQVTVSS | low polyreactivity |
| QVQLVDSGGGLVQAGGSLRLSCAASGSTFRGNAMGWSRQAPGKERELVAAISASGGRTYYADSVKGRFTISRDNAKNTVYLQMNSLKPEETAVYYCAVRDQTDKVPFYYWGQGTQVSVSS | high polyreactivity |
| QVQLVDSGGGLVQAGGSLRLSCAASGSTFSTYPMGWYRQAPGKERELVAAISRSGGTTYYADSVKGRFTISRDNAKNTVYLQMNSLKQEETAVYYCNAVTRYTQIMDYWGQGTQVTVSS | high polyreactivity |
| QVQLVDSGGGLVQAGGSLRLSCAASGSTFTYYAMGWYRQAPGKERELVAAIRNSDGTTYYADSVKGRFTISRDNAKNTVYLQMNSLKPEDTAVYYCAAGPRGRWSTYDYWGQGTQVTVSS | low polyreactivity |
| QVQLVDSGGGLVQAGGSLRLSCAASGSTFYGYTMGWYRQAPGKERELVAAITSSGGSTYYADTVKGRFTISRDNAKNTVYLQMNSLNPEDTAVYYCAARGYRHFYYWGQGTQVTVSS | high polyreactivity |
| QVQLVDSGGGLVQAGGSLRLSCAASGSTFYLYAMGWYRQAPGKERELVAVITTDGSTTYADSVKGRFTISRDNATNTVYLEMNSLKPEDTAVYFCAAYGGNGQYYSQYDYWGQGTQVTVSS | low polyreactivity |
| QVQLVDSGGGLVQAGGSLRLSCAASGTIILVYAMGWYRQAPGKERELVARITNGTGSTYYADSVKGRFTISRDNAKNTVYLQMNSLKPEDTAVYYCATGQGSSYRSGPRWYPNAFGYWGQVTQVTVSS | high polyreactivity |
| QVQLVDSGGGLVQAGGSLRLSCAASGYILGRYAMGWYRQAPGKERELVAAISSSGGSTYYADSVKGRFTISRDNGKNSVYLQINSLKPEDTAFYYWNVPRFYGSYNYWGQGTQVTVSS | high polyreactivity |
| QVQLVDSGGGLVQAGGSLRLSCAASGYTFVPYAMGWYRQAPGKERELVAAISSSGGDTYYADSVKGRFTISRDNAKTTVYLQLNSLKPEDTAVYYCNTGVYVWQYWYYGFDYWGQGTQVTVSS | low polyreactivity |
| QVQLVDSGGGLVQAGGSLRLSCAASGYTLDGNAMGWYRQAPGKQREFVAAITIRGGGTYYADSVKGRFTISRDNAKNTDYVQMNSLKPEDSAVYYCNADTYDPFPWGSDYWGQGTQVTVSS | high polyreactivity |
| QVQLVDSGGGLVQAGGSLRLSCAATGFTLPKYAMGWYRQAPGKERELVAAISSGGSTYYADSVKGRYTISRDNAKNTVYLQMNSLKPEDSAVYYCAAKYYYYRRDYWGQGTQVTLSS | high polyreactivity |
| QVQLVDSGGGLVQAGGSLRLSCAAYGLTFTYYDMGWYRQAPGNERELVATFSWSDSSTYADSVKGRFTISRDNAKNTVYLQMNSLKPEDTAVYYCNKVSYYTYDVDYWGQRTQVTVSS | low polyreactivity |
| QVQLVDSGGGLVQAGGSLRLSCADSGRIFVGYAMGWYTQAPGKDRELVAAINRTGSSTYYADSVKGRFTISRDNAKTTVYLQMNSLKPEDTAVYYCNARSGNRYGPRYDYWGQGTQVTVSS | high polyreactivity |
| QVQLVDSGGGLVQAGGSLRLSCASSGFTISPYAMGWYRQAPGKERELVAAISSSGGSTYYADSVKGRFTISRDNAKYTVYLQMTSLKPEDTAVYYCATQGTRRPGKFYYWGQCTQVTVSS | high polyreactivity |
| QVQLVDSGGGLVQAGGSLRLSCASTGSIYRYAIGWNRQSPGKERELVAAINFNGGRTYYADSVKGRFTISSDNAKNTVYLQMNSLKPEDTAVYYCAAVRSSNQGGFDYWGQGTLVTVSS | high polyreactivity |
| QVQLVDSGGGLVQAGGSLRLSCDASGLIFFFYAMRWYRQAPGKERELVAAISDEGVSTDYADSVKGRFTISRDNAKNTVYLQMNSLKPEDTAVYYCAAKTERVYPWFSFGYWGQGTQVTVSS | low polyreactivity |

| Sequence | polyreactivity (PSR sort gate) |
| --- | --- |
| QVQLVDSGGGLVQAGGSLRLSCDASGSTFKWYAMGWYRQAPGKERELVAAISWTGASTYYADSVKGRFTISRDNGKNTVYLQMNSLKPEDTAVYYCAADRTYYAMLWTGRSRYDYWGQGTQVTVSS | high polyreactivity |
| QVQLVDSGGGLVQAGGSLRLSCPASGYTIVYNAMGCYRQGPGKEREFVAAITWSGTSTRYADSVKGRFTISRDKAKNTVYLQMNSLKPDDTAVYYCSARFPLVRYNYWGQGTQVTVSS | high polyreactivity |
| QVQLVDSGGGLVQAGGSLRLSCSASGRIFLRYPMGCYRQSPGKERELVAVITWSGGSTNYADSVKGRFTISRDNAKNTVYLQMNSLKPEDTAVYYCAVDNTGRSWPYDYWGQGTQVTVSS | low polyreactivity |
| QVQLVDSGGGLVQAGGSLRLSCSASRSNFVYNAIGWYRKAPWKERELVTGISGGGGTNYADSVKGRFTISRDNEKNTVYLQMNSLKPEDTAVYYCAAEQNYIEFDYWGQGTQVTVSS | low polyreactivity |
| QVQLVDSGGGLVQAGGSLRLSSAASGFIFYEYAMGWYRQAPGKEMELVAAITSGGSTDYADSVKGRFSSSRDNAKNTVYLQMNCMKPDDTAVYYCNADLLTGYYWYKYWGQGTQVSVSS | low polyreactivity |
| QVQLVDSGGGLVQAGGSLRLSSAASGRIFPRYAMGWDRQAPGKERELVATISSGGSTYYADSVKGRFTISRDNAKNTVYLQMISLKPEDTAVYYCATGRQVVRSYSEGDYWGQGTQVTVSS | low polyreactivity |
| QVQLVDSGGGLVQAGGSLRLSSAASGSTFAVNAMGWYIQARGKERELVAAISDSDGSTFYADSVKGRFTISRDNAKNTVYLQMNSLKPEDTAVYYCAATVYRVFRYSYLYYYWGQGTQVTVSS | low polyreactivity |
| QVQLVDSGGGLVQAGGSLRLSSPASGFIIGLYAMGWYRQEPGKERELVAAISTSSGITYYADSVKGRFTISRDNAKNSVYLQMNSLKPEDTAVYYCAARGHYYDFCGQGTQVTVSS | low polyreactivity |
| QVQLVDSGGGLVQAGGSLRLTCAASGSIFDRYAMGWYRQAPGKERELVAAITGRGTSTYYADSVKGRFTISRDNAKNTVYLQMNSLKPEETAVYYCATPFWSRPAQDEYDYWGQGTQVTVSS | high polyreactivity |
| QVQLVDSGGGLVQAGGSLSLSCAASGSTFTWYAMGWYIQAPGKERELVAASRWSGGNTYYADSVKGRFTISRDNAKHTVYLQMNSLKPEDPAVYYCAARLYTAADHYNDWGQGTQVTGSS | high polyreactivity |
| QVQLVDSGGGLVQAGVSLRLSCPASGSIFRPNAMGWYRQAPGKERELVAAINTSDDSTYYADSVKGRFTISRDNAKNTVYLQMNSLIREDTAVYYCAAEYYAYAYGDDYDYWGQGTQVTVSS | low polyreactivity |
| QVQLVDSGGGLVQARGSLRLTCAASGRIYNLYAMGWYRQAPGKERELVAAIRGRGTSTYYADSVKVRFTISRDKAKNTVYFQMNSLKPEDTAVYYCASEGGYGPTLQDTSRYEYWGQGTQVTVSS | low polyreactivity |
| QVQLVDSGGGLVQASGSLRLSCAASGSIFLFYAMGGYRQAPGKERQVVAAITSGGRTYYADSVKGRFTISRDNAKNTVYLQMNSLKPEDTAVYYCNAVRFYSIGLGQDDYWGQGTQVTVSS | low polyreactivity |
| QVQLVDSGGGLVQGGGRLRLSCAASGFTLQSNAMGWYRQAPGKERELVAAISFRGGSTYYADSVKGRFTISRDNAKNTVYLQKNSLKPEDTAVYYCAADFYVHSAYYYGYWGQGTQVTVSS | low polyreactivity |
| QVQLVDSGGGVVQAGGSLRLSCPASGRTFRGYAMGWYRQAPGKERELVAAISSGGSTYYADSVKGRFTISRDNAKNTVYLQMNSLKPEDTAVYYCAAGGPSTLDDYWGQGTQVTVSS | low polyreactivity |
| QVQLVDSGGGVVQAGLSLRLSCAASGRTFPGYAIGWYRQAPGKEMELVASITSRGGITYYADSVKGRFTISRDNAKITVYLQLNSLKPEDSAVYYCATDFAVTKMEYWGQGSQVTVSS | low polyreactivity |
| QVQLVDSGRGLVQAGGSLRLSCAASGHIFLYYTMAWYRQAPGKERELVAGITIGGSTIYADSVKGRFTISRDNAKNSVYLQMNSMKPEDTAVYYCNVVNYVFIYSYWEYYYWGQGTEVTVSS | low polyreactivity |
| QVQLVDSGRGLVQAGGSLRLSCAASGSIFDNYAMGSYRQAPGNERELVAAISGRGGSTYYADSVKGRFTISRDNAKNTVYLQMNSLKPEDTAVSYCNALVHQTYYDYDDWGHGTQVTVSS | high polyreactivity |
| QVQLVDSGVGLVQAGGSHRLSCAASAFTIDGYDMGWYRQAPGKERELVAAISWDGGSTYYADSVKGRFTISRDNAKNTVYLQMNSLKPEDTAVYYCAAPFPFVSEFYRYDYWGQGTQVTVST | low polyreactivity |
| QVQLVDSGVGLVQAGGSLRLSCASSGSTFTINAMACYRHAPGKERELVAAISSGDSYYADSVKGRFTISRDNAKNTVYLQMNSLKPEDTTAVYYCAADSPGDSSKYDYWGQGTQVTVSS | low polyreactivity |
| QVQLVDSRGCLVQAGGSLRLSFAASGSIFGYYSMVWYIQAPGKESELVAAISYSGSRTYYADSVKGRFTISRDNAKNTVYLQKNSLKPEDTAVYYCAVLRRDGFEYWGQGTQVTVSS | high polyreactivity |
